From patent publication US20240327525A1 (VIB VZW, published 2024) come the findings set out here.

The target in experiment [1] is T1, human CI-M6PR domain1-3His6 (human, UniProt P11717 41-467).
T1 construct: Recombinant, made in HEK293 cells; Biotinylated with NHS-PEG4-biotin for BLI; unlabelled in SEC-MALLS and crystallisation; also called CI-M6PR hDom1-3His6; hDom1-3His6
Kind of experiment: BLI, association pH 7.4, dissociation at pH 6.0, mean of local fits. How it is done:
(§1) FIG. 19-20. Association-dissociation graphs of anti-CI-M6PR VHH1H11 and VHH1H52, resp. analyzed using BLI. BLI was performed on an Octet Red96 (FortéBio) instrument in kinetics buffer (0.2 M Na₂HPO₄, 0.1 M Na⁺citrate, 0.01% bovine serum albumin, 0.002% Tween-20). Biotinylated human domain₁₋₃His₆ was immobilized on Streptavidin SA biosensors (Sartorius) to a signal of 0.6 nm. A 120 s association phase in VHH 1H11 (FIG. 19) or VHH 1H52 (FIG. 20) serially diluted (0-200 nM) in pH 7.4 phosphate citrate buffer, was followed by 420 s of dissociation in phosphate buffer of either pH 7.4, 6.5, 6.0, 5.5 or 5.0. Between assays, biosensors were regenerated by three times 10 s exposure to regeneration buffer (10 mM glycine pH 3). The degree of association and dissociation was measured in δ nm over time(s).
(§2) For VHH 1H11 (SEQ ID NO: 24) and VHH 1H52 (SEQ ID NO: 25), a BLI experiment was performed in which the human CI-M6PR domain₁₋₃His₆ was biotinylated and coupled to streptavidin biosensor tips. […] For measurements with association at pH 7.4 and dissociation at pH 6.5, 6.0, 5.5 and 5.0, the depicted dissociation rate constants are an average of the parameters determined by local curve fitting of the dissociation of 200, 100 and 50 nM VHH. […]
A general note: In BLI a coated tip is dipped into the sample, and binding shifts an interference pattern.

Experiment [2] concerns the target T1, human CI-M6PR domain1-3His6. Kind of experiment: BLI, biotinylated antigen on SA tips, global 1:1 fit, dissociation at pH 7.4. Here is the method:
(§3) For VHH 1H11 (SEQ ID NO: 24) and VHH 1H52 (SEQ ID NO: 25), a BLI experiment was performed in which the human CI-M6PR domain₁₋₃His₆ was biotinylated and coupled to streptavidin biosensor tips. After loading, the tips were incubated with VHHs serially diluted in pH 7.4 kinetic buffer during the association phase and dissociation was performed at pH 7.4, pH 6.5, pH 6.0, pH 5.5 and pH 5.0. All biosensor tips were then regenerated before analysis of the subsequent VHH. […] When both association and dissociation were performed at pH 7.4, a global fit was performed according to the 1:1 binding model of which the resulting affinity constants (KD), association (kₒₙ) and dissociation rate constants (koff) are shown. For measurements with association at pH 7.4 and dissociation at pH 6.5, 6.0, 5.5 and 5.0, the depicted dissociation rate constants are an average of the parameters determined by local curve fitting of the dissociation of 200, 100 and 50 nM VHH. Association-dissociation curves for VHH1H11 and VHH1H52 are shown in FIG. 19 and FIG. 20, respectively.

Experiment [3] shares this target. Kind of experiment: BLI, association pH 7.4, dissociation at pH 6.5, mean of local fits. Here is the method:
as §3

The target is the same in experiment [4]. The experiment is described as follows: BLI, association pH 7.4, dissociation at pH 5.0, mean of local fits. Here is the method: as §1, §2
Experiment [5] shares this target. Kind of experiment: BLI, biotinylated antigen on SA tips, global 1:1 fit, association at pH 7.4. How it is done: as §3
Experiment [6] has the same target. Kind of experiment: BLI, association pH 7.4, dissociation at pH 5.5, mean of local fits. Here is the method: as §1, §2
Experiment [7] has the same target. The experiment is described as above. How it is done:
(§4) FIGS. 9A-9E. […] BLI was performed on an Octet Red96 (FortéBio) instrument in kinetics buffer (0.2 M Na₂HPO₄, 0.1 M Na⁺citrate, 0.01% bovine serum albumin, 0.002% Tween-20). Biotinylated human domain₁₋₃His₆ was immobilized on Streptavidin SA biosensors (Sartorius) to a signal of 0.6 nm. […] Between runs, biosensors were regenerated by three times 10 s exposure to regeneration buffer (10 mM glycine pH 3). The degree of association and dissociation was measured in δ nm over time(s).
(§5) FIGS. 10A-10E. […] BLI was performed on an Octet Red96 (FortéBio) instrument in kinetics buffer (0.2 M Na₂HPO₄, 0.1 M Na⁺citrate, 0.01% bovine serum albumin, 0.002% Tween-20). Biotinylated human domain₁₋₃His₆ was immobilized on Streptavidin SA biosensors (Sartorius) to a signal of 0.6 nm. […] Between assays, biosensors were regenerated by three times 10 s exposure to regeneration buffer (10 mM glycine pH 3). The degree of association and dissociation was measured in δ nm over time(s).
The source holds these as a separate data set.

For experiment [8] the target is unchanged. The experiment is described as follows: BLI, association pH 7.4, dissociation at pH 5.0, mean of local fits. How it is done:
as §4, §5
This is another data set of the same source.

Experiment [9] has the same target. The experiment is described as follows: BLI, biotinylated antigen on SA tips, global 1:1 fit, dissociation at pH 7.4. Here is the method:
(§6) Biotinylated human domain₁₋₃His₆ was immobilized on Streptavidin SA biosensors (Sartorius) to a signal of 0.6 nm. […] Between runs, biosensors were regenerated by three times 10 s exposure to regeneration buffer (10 mM glycine pH 3). The degree of association and dissociation was measured in δ nm over time(s).
as §5
(§7) After loading, the tips were incubated with VHHs serially diluted in pH 7.4 kinetic buffer during the association phase and dissociation was performed at pH 7.4, pH 6.5, pH 6.0, pH 5.5 and pH 5.0. All biosensor tips were then regenerated before analysis of the subsequent VHH. Table 3 summarizes the kinetic parameters retrieved after processing and curve fitting of the BLI measurements.
The source holds these as a separate data set.

For experiment [10] the target is unchanged. Kind of experiment: BLI, association pH 7.4, dissociation at pH 6.0, mean of local fits. How it is done: as §4, §5
This is another data set of the same source.

The target of experiment [11] is human cation-independent mannose-6-phosphate receptor on cells (human, UniProt P11717 41-2491). Kind of experiment: cell-based or functional assay.
Experiment [12] deals with T1, human CI-M6PR domain1-3His6. The experiment is described as follows: BLI, association pH 7.4, dissociation at pH 6.5, mean of local fits. How it is done: as §4, §5
This is another data set of the same source.

Experiment [13] shares this target. The experiment is described as follows: BLI, biotinylated antigen on SA tips, global 1:1 fit, association at pH 7.4. How it is done: as §6, §5, §7
This is another data set of the same source.

Experiment [14] shares this target. The experiment is described as follows: not stated in the sentence (pH-dependent dissociation).
For experiment [15] the target is unchanged. The experiment is described as follows: BLI at pH 7.4.

The koff is a measure of how fast the partners let go of each other. The term Kd denotes a measure of binding affinity in units of concentration. A low value points to higher affinity. A word on the kon: it is the rate constant with which the complex forms.

Read-outs that look alike come from different tables or passages of the source.

B1: anti-CI-M6PR VHH 1H52 (VHH)
VHH: QVQLQESGGGLVQPGGSLRLSCTASGFTWDSYVIGWFRQAPGKGREGVSCLDVDDGSIYYHDSAKGRFSISRDNAKNTVYLQMNSLKPEDTAVYYCAAVNRASMRFRRCLQVLRYDYWGQGTQVTVSS
notes: Made in E. coli (pHEN6c), IMAC purified; tag not specified
Consider B1, for which the koff turned out to be 0.03 s⁻¹ in [1]; 0.032 s⁻¹ in experiment [2]; 0.067 s⁻¹ in [3]; 0.2 s⁻¹ in experiment [4]; 0.051 s⁻¹ in experiment [6]. The molecule also gave a Kd in [2] of 31 nM. Also, the kon in experiment [5] turned out to be 1e+06 M⁻¹ s⁻¹.

B2: anti-CI-M6PR VHH7 (VHH)
VHH: QVQLQESGGGLVQPGGSLRLSCAASGIIFSDNRMDWYRQAPGKQREWVATLASYGWKTYADSVKGRFTISRDNTKNTVYLRMNSLKPEDTAVYYCKASSPVLNDIWGQGTQVTVSS
notes: Purified by IMAC, so tagged; Labelled with Alexa Fluor 488 (NHS ester) in the imaging experiments
Regarding B2, the koff in experiment [7] turned out to be 0.013 s⁻¹; in experiment [8], 0.017 s⁻¹; in [9], 0.0055 s⁻¹; in experiment [10] it was 0.0099 s⁻¹; in [12] it was 0.0091 s⁻¹. For the same molecule, in experiment [9], binding was put at a Kd of 10.1 nM. Moreover, the “internalisation rate (live-cell imaging of AF488-VHH on MCF7 cells)” value in [11] was 1.26e+06 summed AF-voxels/minute. The kon in [13] was found to be 540000 M⁻¹ s⁻¹. Besides, the “fold higher dissociation rate at pH 6.0 versus pH 7.4” value in experiment [14] came out at 5 fold.

B3: anti-CI-M6PR VHH8 (VHH)
VHH: QVQLQESGGGLVQAGGSLRLSCEASGRTFNTYNWGWFRQAPGKEREFVAAIRWSSSKTSYADSVKGRFTISRDNAKNTIYLQMNSLKPEDTAVYYCAASIVDFTTNPSHFGSWGQGTQVTVSS
notes: as for B2
For B3, the koff in experiment [7] was found to be 0.0034 s⁻¹; in experiment [8] it was 0.023 s⁻¹; in experiment [9], 0.00032 s⁻¹; in experiment [10], 0.00091 s⁻¹; in experiment [12], 0.00084 s⁻¹. For the same molecule, the Kd in [9] was 0.534 nM; in experiment [15], about 3.35 nM. Besides, the “internalisation rate (live-cell imaging of AF488-VHH on MCF7 cells)” value in [11] was found to be 673000 summed AF-voxels/minute. The same molecule returned a kon in experiment [13] of 610000 M⁻¹ s⁻¹.

B4: anti-CI-M6PR VHH 1H11 (VHH)
VHH: QVQLQESGGGLVQPGGSLRLSCAASGIIFSDNRMDWYRQAPGKQREWVATLASYGWKTYADSVKDRFTISRDNAKNTVNLYMNSLQPEDTAVYYCNSGQYWGQGTQVTVSS
notes: as for B1
For the molecule B4, the koff in [1] came out at 0.0051 s⁻¹; in [2], 0.0025 s⁻¹; in experiment [3], 0.0048 s⁻¹; in [4] it was 0.0083 s⁻¹; in [6], 0.0063 s⁻¹. In addition, in [2], the Kd turned out to be 4.9 nM. In [5], this molecule returned a kon of 510000 M⁻¹ s⁻¹.
